Data from publication PMC8092228 (mBio, 2021).

Target: LOV construct of Brucella abortus LOV-HK with the Nα helix, the LOV core and half of the Jα helix (wild type) (Brucella abortus)
Experiment: SEC with static light scattering (SEC-SLS)

LOV construct of Brucella abortus LOV-HK with the Nα helix, the LOV core and half of the Jα helix (wild type) (domain or fragment)
stoichiometry N: 2
